In IntAct's records for PubMed 11779503:

B1: Mothers against decapentaplegic homolog 4 (Homo sapiens), Q13485 (parent)
chain: MDNMSITNTPTSNDACLSIVHSLMCHRQGGESETFAKRAIESLVKKLKEKKDELDSLITAITTNGAHPSKCVTIQRTLDGRLQVAGRKGFPHVIYARLWRWPDLHKNELKHVKYCQYAFDLKCDSVCVNPYHYERVVSPGIDLSGLTLQSNAPSSMMVKDEYVHDFEGQPSLSTEGHSIQTIQHPPSNRASTETYSTPALLAPSESNATSTANFPNIPVASTSQPASILGGSHSEGLLQIASGPQPGQQQNGFTGQPATYHHNSTTTWTGSRTAPYTPNLPHHQNGHLQHHPPMPPHPGHYWPVHNELAFQPPISNHPAPEYWCSIAYFEMDVQVGETFKVPSSCPIVTVDGYVDPSGGDRFCLGQLSNVHRTEAIERARLHIGKGVQLECKGEGDVWVRCLSDHAVFVQSYYLDREAGRAPGDAVHKIYPSAYIKVFDLRQCHRQMQQQAATAQAAAAAQAAAVAGNIPGPGSVGGIAPAISLSAAAGIGVDDLRRLCILRMSFVKGWGPDYPRQSIKETPCWIEIHLHRALQLLDEVLHTMPIADPQPLD
B2: Mothers against decapentaplegic homolog 2 (Homo sapiens), Q15796 (parent)
chain: MSSILPFTPPVVKRLLGWKKSAGGSGGAGGGEQNGQEEKWCEKAVKSLVKKLKKTGRLDELEKAITTQNCNTKCVTIPSTCSEIWGLSTPNTIDQWDTTGLYSFSEQTRSLDGRLQVSHRKGLPHVIYCRLWRWPDLHSHHELKAIENCEYAFNLKKDEVCVNPYHYQRVETPVLPPVLVPRHTEILTELPPLDDYTHSIPENTNFPAGIEPQSNYIPETPPPGYISEDGETSDQQLNQSMDTGSPAELSPTTLSPVNHSLDLQPVTYSEPAFWCSIAYYELNQRVGETFHASQPSLTVDGFTDPSNSERFCLGLLSNVNRNATVEMTRRHIGRGVRLYYIGGEVFAECLSDSAIFVQSPNCNQRYGWHPATVCKIPPGCNLKIFNNQEFAALLAQSVNQGFEAVYQLTRMCTIRMSFVKGWGAEYRRQTVTSTPCWIELHLNGPLQWLDKVLTQMGSPSVRCSSMS

Variants of: B1
Details: with smad2_human SMAD2, Q15796

Variant	effect of a mutation on the interaction
R361H	disrupting interaction strength
D537H	with no effect
D351H	disrupting interaction strength
Y513A	with no effect
R420H	with no effect
K428A	decreasing interaction strength
D493H	with no effect
K507A	decreasing interaction strength
R515A	decreasing interaction strength
R441P	with no effect
V370D	with no effect

Variants of: B2
Details: with smad4_human SMAD4, Q13485

Variant	effect of a mutation on the interaction
D300H;R310H	with no effect
R310H;K375A	with no effect
R310H;K420A	with no effect
D300H;K420A	with no effect
N387P	with no effect
K375H;K420A	with no effect
R310H	decreasing interaction strength
D300H;K375A	with no effect
K375A	with no effect
Y406H	with no effect
K420A	with no effect
R428A	with no effect
Y426A	with no effect
D450H	disrupting interaction strength
W368H	with no effect
D300H	decreasing interaction strength
V319D	with no effect
